{"source": "the DeepSol protein solubility set"}
{"test": "soluble on expression in E. coli; label from the status in PepcDB or PDB records"}
{"sequence": "MPGAMHDEPDHPELSITVPTLNEAEGLERFFAMLSAQQGVRFELVIADGGSTDGTPESARRLAAATPFAATVIETGRGRGRQMNAGAAAAAGDTLLFLHADCAFPDPLALRTALDAFTQTVAAGGSHRVAGHFRLRFERTDSAPSLPYYFYEWKARLHRPGCTHGDQGLLLGRRFFAEAGPFDESFPILEDVGLAERIAALGEWLLLPAEIVTSARRFEAEGLRERQTLNALLMNFAAMGWDPFLAELPRLYQSQDRAGRLLLGPVLRLIARLLRPLPRRERGRLWRETGRYVRANAWQIPFFLDVRRHFRQGTPVGEGETPRLDLHDRIFDRLTENGAGHRATALLVWIWFRLSLLREPLTPPAARNPEGNGSLEHHHHHH", "soluble on expression in E. coli": "soluble"}
{"sequence": "MPGNSPHYGRWPQHDFTSLKKLRPQSVTSRIQPGSDVIVCAEMDEQWGYVGAKSRQRWLFYAYDSLRKTVVAHVFGERTMATLGRLMSLLSPFDVVIWMTDGWPLYESRLKGKLHVISKRYTQRIERHNLNLRQHLARLGRKSLSFSKSVELHDKVIGHYLNIKHYQLEHHHHHH", "soluble on expression in E. coli": "soluble"}
{"sequence": "MPHKNTKSNVQKITASVASVIVSTGIVMNSSNRRVKATGKREDEIVEVESLKRADTETTKAAAVQTPKINQTKKMSHRTQKVTQMIHYVDEDERPVYDDYTASLIFEQTGILDNVTGKQTWNSNWLPKTTATFSAVEHPVVRNHHLVNPEINEVSAYDVEVTDDTFKNPLLKVHKVVYAHDIEPIKRTQVVTQTIHYRYEDGAVAHDDHVVSLIFTQSGKRDLTNGKEIWDSKWSLTQTFEALPSPVIIGYTADKPMVGPDEVTVDSKNFLDKQNREETVIYSANTITQNKKDGISEEKNVNNSVAVAPLKSAVMIGGVISILKFKRLMVIIKNKKDHKLEHHHHHH", "soluble on expression in E. coli": "soluble"}
{"sequence": "MPILKHLLLKNRKQPMQKKFVATAVGYVPWGDGAAEYFYNLYEYEDGTRECEKFDGGQYYKIPENADFSTKAQVKAWIYGGAVPKSVLSYEALIDEMNENIKQRSQAGGEIDRQLEEALDKQLGRYKNNKKIKNYRKQLNLKHDSSALFLDGEEIYSVTACRINQKI", "soluble on expression in E. coli": "not soluble"}
{"sequence": "MPILTIREVCNINHWGIGYYDVDDSGEIIVRPNPSQHNQTVSLQKLTEAVQQKHQARLPVLFCFPQILEHRLRDINRAFQTAREECGYKGGYCLVYPIKVNQHRRVIESLMSSGQPHGLEAGSKAELMAVLAHAGNRQTLIVCNGYKDREYIRFALMGEKLGHQVYLVIEKLSEIQMVLEEAEKLGIKPRLGVRARLASQGSGKWQSSGGEKSKFGLSASQVLQLVDILKQKNRLDCLQLLHFHLGSQLGNIRDVATGVHESARFYVELHKLGVNIRCFDVGGGLGVDYEGNRTQSDCSVNYSLNEYAATVVWGISQACLEHGLPHPTIITESGRGITAHHAVLVANVIGVERYKPRRLDAPSPEAPRVLHSMWETWTDISASREKRSLRSWIHEGQFDLADVHNQYNVGLLSLAQRAWAEQLYLNICHEVGELFNEKHRSHRTIIDELQERFADKLYVNFSLFQSLPDAWGIDQLFPVCPITGLNEPIARRAVLLDITCDSDGTIDHYIDGDGIAGTMPMPDYPEEEPPLLGFFMVGAYQEILGNMHNLFGDTATADVVVGEDGQFTVIDYDEGNTVADMLEYVYQDPKELMKRYREQIEHSDLPASQAMSFLKELEAGLNGYTYLEDE", "soluble on expression in E. coli": "not soluble"}
{"sequence": "MPITNASPENILRYLHAAGTGTKEAMKSATSPRGILEWFVNFFTCGGVRRSNERWFREVIGKLTTSLLYVNKNAFFDGNKIFLEDVNGCTICLSCGAASENTDPMVIIEVNKNGKTVTDKVDSERFWNVCRMLKLMSKHNIQQPDSLITEDGFLNLRGVNLAHKDFQGEDLSKIDASNADFRETTLSNVNLVGANLCCANLHAVNLMGSNMTKANLTHADLTCANMSGVNLTAAILFGSDLTDTKLNGAKLDKIALTLAKALTGADLTGSQHTPTPLPDYNDRTLFPHPIF", "soluble on expression in E. coli": "not soluble"}
{"sequence": "MPKASDIKKGSAIEHNGKVFFVKEISKLTPSGRAGATLFRMRMYDVATGAKSDESFKADDMINLADFSRRSATFSYVDGNEYVFMDSEDYTPYNFNKEAIEEELLFITEETQGLQILIVDGAPVAIELPSAVDLEIVETAPSIKGASASARTKPATMTTGLTVQVPEYIANGEKVKINTTEHKFMSRALEHHHHHH", "soluble on expression in E. coli": "not soluble"}
{"sequence": "MPKATFYTHVAQVPIFTCRLIARAIRDGGRILVWSDSFGQLQELDKMLWQYEAESFIPHEIWETEEAMPSEPSVLLACGGNLPRIPEGMTVLNLSDGFWNTAPVLPARVLEIVGNSLEELADARERFTAYRRSGFAIEHHGMEGKA", "soluble on expression in E. coli": "not soluble"}
{"sequence": "MPKDELPNHNCIKHLRSVVQQQQSRIAELEKTRAEHKHQLAEQKRDIQLLKAYMRAIRSVNPNLQNLEETIEYNEILEWVNSLQPARVTRWGGMISTPDAVLQAVIKRSLVESGCPASIVNELIENAHERSWPQGLATLETRQMNRRYYENYVAKRIPGKQAVVVMACENQHMGDDMVQEPGLVMIFAHGVEEI", "soluble on expression in E. coli": "not soluble"}
{"sequence": "MPKDWDAFYRNAPEDRPPAFVVRAYGPFVPQGPVLDLAGGLGRNARYFLQRGHPVVLVERSREALRRLSGTPGLTLVALDLEGADAPQSLPQGPFAGIVMAYYVNRPLLQGLAPLLLPGGLVLVEGFSRKEALRRGRPHSPFYWEGEELLTPPPGLALRAFGEGWMEGYRVYAVYLRP", "soluble on expression in E. coli": "soluble"}
{"sequence": "MPKEILMPELAESVVEGEILKWLVEEGDYLKKDQPFVEVMTDKVTVELPSPYEGVLLKKLAKEGEVVKVHAPIALIAEPGEAVEGVKEAPPVQAVEERSIVEPGLPAKEEKEDLSLFKPDPTQVAVKNPFLSGEKPQEGARPGRVLAVPAARKLARELGIPIEEVPGSGPLGRVRVEDVRAYAERRKAPPERPEEGPQVLPAGFPPPPKYAPPKGYEHLEERVPLRGIRRTIAQGLWQSHLYTVRTLNVDEADLTELVRLRERLKPQAEAQGVKLTYLPFIVKAVVRALKKFPMLNTSLDEERQEIVYKRYYHIGLAVATERGLIVPVVRDADRKSVLELAQEIAELSQKAREGRLAPEEVTGSTFTITNIGSVGATLSFPIIHLPDAAILGVHSIRKRPWVMPDGSIRPRDIMFLSLSFDHRLVDGAEAAMFTREVIRLLENPDLLLLEM", "soluble on expression in E. coli": "soluble"}
{"sequence": "MPKETPSKAAADALSDLEIKDSKSNLNKELETLREENRVKSDMLKEKLSKDAENHKAYLKSHQVHRHKLKEMEKEEPLLNEDKERTVLFPIKYHEIWQAYKRAEASFWTAEEIDLSKDIHDWNNRMNENERFFISRVLAFFAASDGIVNENLVENFSTEVQIPEAKSFYGFQIMIENIHSETYSLLIDTYIKDPKESEFLFNAIHTIPEIGEKAEWALRWIQDADALFGERLVAFASIEGVFFSGSFASIFWLKKRGMMPGLTFSNELICRDEGLHTDFACLLFAHLKNKPDPAIVEKIVTEAVEIEQRYFLDALPVALLGMNADLMNQYVEFVADRLLVAFGNKKYYKVENPFDFMENISLAGKTNFFEKRVSDYQKAGVMSKSTKQEAGAFTFNEDF", "soluble on expression in E. coli": "soluble"}
{"sequence": "MPKGGPSGLSPVYAGIREDLDTLLRAYLQFKSVRFYDYKMMFERRGMVDIFNGRSESSEIIEFNEHLLVQCLSYMEEEACPGMPRSLKERLFGLYSLYTFFFIQQESHVVQIRMNPDCARNFRKFAQFLLVEKIYDAYVHDPCYAKSNQTDEKSHGVPVLANLNDPLCRVKALTEQFDMLGVIHREYSKLKDKFGITGNPLNDPTEILSRVIEKNLKAIEDSAIEKVFDVDQDEQSSVDALSSDGDDEETEKDPDIAENDDNVEETIEPSLPSRKRKRKRRQSKTVPISDPEVLDDLFAREILRDNQPTTSDDSAQRMNVDSKIVPGRKKSRKMSAKKAKINLPRIVKSEQIPPLRGIMKNEDLNNSESCIHENVDIVLTQSDSLKNEIKSEIVALNSSTKTSFKSSRRVSFREKENGELDNTIHEIPRRCHSSDESDEENSDEDPVAESSHRPHLTIQLKPIHEKYETSISMNLIYMKNKEKLISADDFNIFKPVEGAEETFETPFDSLIPEDIDSDDEI", "soluble on expression in E. coli": "not soluble"}
{"sequence": "MPKKRTPYETWRKNIRPIIWKRDNKQCIRCKKTVLLSECHIDHIISGLHGDNRLQNLRTLCRRCHVLRSDRLHRGMIAKALKDGVITADWRQYVWEEESLLKRLEHHHHHH", "soluble on expression in E. coli": "not soluble"}
{"sequence": "MPKLHMFYLGGNAGRSNIEVHDIQFAVCDNYREAVPALKAAWFGDADKIHIDGWQIVEWADGYDIAVSETPKTKMPSEHAPRLYFANVGGYRAGQLAEAHAFGLFAAATPAEAKQKALQTLLTDSYVQQHKDNLKDVDNLLALDRIGNFHIRLTPNPHGKPAEIGFQGYLPI", "soluble on expression in E. coli": "not soluble"}
{"sequence": "MPKLTIEGAGTFDVKEGTKLVLAIEDSGVNILHRCGGNARCTTCRVEILAGDFCEASANEKHAMTEKGIEDHLRLSCQMRVHKDIVVRPVLTVENSGLDAGPRPAE", "soluble on expression in E. coli": "not soluble"}
{"sequence": "MPKWGNINERRNQLHEVIRLSGMNLIIDDTDHPLIIKVASIQSARMQVYFIDNDDYFQNRLQTADENGVEYDDNDSRAIFYARGVLETVKKLRWCPDVIHCHGWMTALAPLYIKKAYKDEPSFRDAKVVFSVYEDDFKGTFNNDFASKLMLKGINKKDVATLKDPVDYATLCKLAVDYSDGIVQNSEHVNEDVMNYARQSGKLVLDYQAPDALADACNSFYDQVWEAEQK", "soluble on expression in E. coli": "not soluble"}
{"sequence": "MPLEASELKPTAGPLEASELKPTAGPLEASELKPTAGPLEASELKPTAGPLEASELKPTAGPLEASELKPTAGPLEASELKPTAGMFKNAKEFVQYANKLKTLREKKLNGVSIYVCVGTGCTAKGALKVYSAFEEELKKRNLLGQVTLEKIDDDKVTLNRTGCCGRCSSGPLVKIMPYRFFYSNVAPEDVPEIVDRTVLKGEPIERLFLTDPLTGEKVPRIEDTTLFKNQDFYIMEAIGESECDSIEDYIARSGYESLVKALTSMTPEEIIETVKASGLRGRGGGGFPTGLKWEFTRKAQGDIKFVVCNGDEGDPGAFMNRTLLERDPHLVLEGMIIAGYAVGAQKGYAYIRAEYPFAVKMFKKAIEDARKLGLLGENILGTGFSFDLEVKEGAGAFVCGEETALLASIEGKRGMPRPKPPFPAQSGLWGKPTLINNVETYANIPRILRDGVENYRKRGTENSPGTKMFSVAGPLKATGIIEVEFGTTLRDIIYNICGGFVEGEEFKAVQIGGPSGACLSEDFIDMPLDYDTLKKADAMVGSGGIVVITKKTCMVEVARFFLDFTKRESCGKCVPCREGTMQAYNILEKFTHGKATYEDLKTLEHLSKTIKTASLCGLGKTAPNPILSTLKLFREEYIAHIEGECPSGMCTAFKKYVINPDICKGCGLCARSCPQNAITGERGKPYTIDQEKCVKCGLCASKCPFKAIELVAAALEHHHHHH", "soluble on expression in E. coli": "not soluble"}
{"sequence": "MPLEASELKPTAGPLEASELKPTAGPLEASELKPTAGPLEASELKPTAGPLEASELKPTAGPLEASELKPTAGPLEASELKPTAGMYAFKAVKQYFYPSDNLKVLMHKFTDMVNFTINIMIEKNLTSRNSVSNEVYHKLKEYEIPSYYYIEAINKAVALVKTYRKRLKKKQKATVPHVEKPMLSTYYGFKIVGGNLMIPIANREYESIPLNAYVRDATSMVKVHSFALSAYTLSLTIGRDVDAIECTTTVGVDRNLRNATVGNEFHHEIYDLSNVVEIKQRYRKKESHFHRNDRRIREKILSKYGKRERNRVKQIMHETSKAIVSNASTRKEMIVLENIRGINKITKKGDGKGKDYRFLLKNAFPYGMLASQVMYKASWEGLPVIELTRKETRNTSRMCSVCGSLTRIEHGRILKCDSCGLEIDRDVNACINIAFRYRTCLKRSHKGLPGEAVKQSKDVEQMAGSQISTDILEHHHHHH", "soluble on expression in E. coli": "soluble"}
